Measured values: patent US20230075753A1
Values joined by “and” are separate entries in the source; they are usually repeats but may differ in a detail not shown here. Identical values can stand only once.

Assays:
[1] = molecular target: Active cyno KLK5 (cynomolgus monkey)
[2] = molecular target: Active human KLK5 (human) (UniProt Q9Y337); test: cell-based or functional assay

IC50 (read off the curve) [1]: 0.7 nM
Hu KLK5 IC50, inhibition of protease activity (Boc-VPR-AMC) (not printed (M by Table 2)) [2]: 1.03e-10 and 7.44e-11
IC50 (M), inhibition of kallikrein protease activity (fluorogenic peptide substrate) [2]: 1.03e-10 M
Substance: Human LEKTI D5 rabbit Fc fusion protein
